# From patent publication US20130225488A1 (CADILA HEALTHCARE, published 2013)
# Where no end group is shown, it is not given here. [ ]: non-standard residue; d: D form. Aib = CC(C)(N)C(=O)O
# Assays:
# [1] = molecular target: Human GLP-1 receptor (human, UniProt P43220 24-463); assay: cell-based or functional assay
# [2] = molecular target: Human glucagon receptor (human, UniProt P47871 26-477); assay: cell-based or functional assay
# Chain of Human GLP-1 receptor (P43220 24-463): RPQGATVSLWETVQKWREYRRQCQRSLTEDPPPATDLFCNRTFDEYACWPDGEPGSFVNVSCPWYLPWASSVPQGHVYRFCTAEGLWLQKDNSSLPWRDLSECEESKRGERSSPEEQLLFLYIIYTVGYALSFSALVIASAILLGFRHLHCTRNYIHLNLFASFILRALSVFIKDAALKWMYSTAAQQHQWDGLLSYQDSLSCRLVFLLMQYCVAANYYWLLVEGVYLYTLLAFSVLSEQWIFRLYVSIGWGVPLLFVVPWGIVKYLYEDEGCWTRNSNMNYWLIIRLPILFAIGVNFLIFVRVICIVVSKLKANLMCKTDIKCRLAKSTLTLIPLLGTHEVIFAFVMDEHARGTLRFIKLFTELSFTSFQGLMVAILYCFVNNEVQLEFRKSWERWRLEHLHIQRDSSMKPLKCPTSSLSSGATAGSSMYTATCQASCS
Binder,"cAMP release, % activity with respect to control; test compound 1 nM [1]","cAMP release, % activity with respect to control; test compound 10 nM [1]","cAMP release, % activity with respect to control; test compound 100 nM [1]","cAMP release, % activity with respect to control; test compound 1 µM [1]","cAMP release, % activity with respect to control; test compound 10 µM [1]",cAMP production with saturated glucagon peptide; test compound 1 nM [2],cAMP production with saturated glucagon peptide; test compound 10 nM [2],cAMP production with saturated glucagon peptide; test compound 100 nM [2],cAMP production with saturated glucagon peptide; test compound 10 µM [2],cAMP production with saturated glucagon peptide; test compound '1 nM' [2]
HXQGTXTSDXX (Aib at 2; α-Me-2F-Phe at 6; Bip(OMe) at 10; Bip(2F) at 11) [Seq. ID. No. 31: H-Aib-QGT-(α-Me-2F-Phe)-TSD-Bip(OMe)-Bip(2F)],93%,99%,99%,99%,99%,6 pmol/ml/µg prt,5 pmol/ml/µg prt,2 pmol/ml/µg prt,0 pmol/ml/µg prt,0 pmol/ml/µg prt
HXQGTXTSDXX (not fully specified; ACP at 2; α-Me-2F-Phe at 6; Bip(OMe) at 10; Bip(Pyr) at 11) [Seq. ID. No. 34: H-(ACP)-QGT-(α-Me-2F-Phe)-TSD-Bip(OMe)-Bip(Pyr)],99%,99%,99%,99%,99%,0 pmol/ml/µg prt,0 pmol/ml/µg prt,0 pmol/ml/µg prt,0 pmol/ml/µg prt,0 pmol/ml/µg prt
H[Aib]QGTFTSD[Bip(OMe)][Bip(2Me)] [Seq. ID. No. 13: H-Aib-QGTFTSD-Bip(OMe)-Bip(2Me)],60%,92%,98%,99%,99%,10 pmol/ml/µg prt,8 pmol/ml/µg prt,6 pmol/ml/µg prt,1 pmol/ml/µg prt,4 pmol/ml/µg prt
HSQGTFTSD[Bip(OMe)][Bip(2CF3)] (not fully specified (C-terminus); printed as HSQGTFTSD-Bip(OMe)-Bip(2CF3)) [Seq. ID. No. 8: HSQGTFTSD-Bip(OMe)-Bip(2CF3)],40%,81%,87%,95%,98%,4 pmol/ml/µg prt,2 pmol/ml/µg prt,0 pmol/ml/µg prt,0 pmol/ml/µg prt,0 pmol/ml/µg prt
H[Aib]QGTFTSD[Bip(OMe)][Bip(2F)] [Seq. ID. No. 15: H-Aib-QGTFTSD-Bip(OMe)-Bip(2F)],66%,97%,99%,99%,99%,6 pmol/ml/µg prt,5 pmol/ml/µg prt,2 pmol/ml/µg prt,0 pmol/ml/µg prt,0 pmol/ml/µg prt
HSQGTFTSD[Bip(OMe)][Bip(2Me)]-NH2 [Seq. ID. No. 5: HSQGTFTSD-Bip(OMe)-Bip(2Me)],38%,78%,86%,95%,98%,20 pmol/ml/µg prt,18 pmol/ml/µg prt,16 pmol/ml/µg prt,12 pmol/ml/µg prt,14 pmol/ml/µg prt
HXQGTXTSDXX (Aib at 2; α-Me-2F-Phe at 6; Bip(OMe) at 10; Bip(2CF3) at 11; C-terminal amide (CONH2)) [Seq. ID. No. 32: H-Aib-QGT-(α-Me-2F-Phe)-TSD-Bip(OMe)-Bip(2CF3)],99%,99%,99%,99%,99%,4 pmol/ml/µg prt,2 pmol/ml/µg prt,0 pmol/ml/µg prt,0 pmol/ml/µg prt,0 pmol/ml/µg prt
HAQGTFTSD[Bip(OMe)][Bip(2F)] [Seq. ID. No. 11: HAQGTFTSD-Bip(OMe)-Bip(2F)],51%,86%,91%,99%,99%,10 pmol/ml/µg prt,8 pmol/ml/µg prt,6 pmol/ml/µg prt,0 pmol/ml/µg prt,2 pmol/ml/µg prt

# Results, then the binder that gave them:
"cAMP release, % activity with respect to control; test compound 1 nM [1]","cAMP release, % activity with respect to control; test compound 10 nM [1]","cAMP release, % activity with respect to control; test compound 100 nM [1]","cAMP release, % activity with respect to control; test compound 1 µM [1]","cAMP release, % activity with respect to control; test compound 10 µM [1]",cAMP production with saturated glucagon peptide; test compound 1 nM [2],cAMP production with saturated glucagon peptide; test compound 10 nM [2],cAMP production with saturated glucagon peptide; test compound 100 nM [2],cAMP production with saturated glucagon peptide; test compound 10 µM [2],cAMP production with saturated glucagon peptide; test compound '1 nM' [2],Binder
38%,77%,85%,94%,97%,18 pmol/ml/µg prt,16 pmol/ml/µg prt,12 pmol/ml/µg prt,6 pmol/ml/µg prt,8 pmol/ml/µg prt,HAQGTFTSD[Bip(OMe)][Bip(2Me)] (not fully specified (C-terminus); printed as HAQGTFTSD-Bip(OMe)-Bip(2Me)) [Seq. ID. No. 9: HAQGTFTSD-Bip(OMe)-Bip(2Me)]
99%,99%,99%,99%,99%,5 pmol/ml/µg prt,3 pmol/ml/µg prt,1 pmol/ml/µg prt,0 pmol/ml/µg prt,0 pmol/ml/µg prt,HXQGTXTSDXX (not fully specified; ACP at 2; α-Me-2F-Phe at 6; Bip(OMe) at 10; Bip(2F) at 11) [Seq. ID. No. 35: H-(ACP)-QGT-(α-Me-2F-Phe)-TSD-Bip(OMe)-Bip(2F)]
62%,94%,99%,99%,99%,9 pmol/ml/µg prt,6 pmol/ml/µg prt,5 pmol/ml/µg prt,0 pmol/ml/µg prt,3 pmol/ml/µg prt,H[Aib]QGTFTSD[Bip(OMe)][Bip(Pyr)] [Seq. ID. No. 14: H-Aib-QGTFTSD-Bip(OMe)-Bip(Pyr)]
99%,99%,99%,99%,99%,10 pmol/ml/µg prt,8 pmol/ml/µg prt,6 pmol/ml/µg prt,1 pmol/ml/µg prt,4 pmol/ml/µg prt,HXQGTXTSDXX (Aib at 2; α-Me-2F-Phe at 6; Bip(OMe) at 10; Bip(2Me) at 11) [Seq. ID. No. 29: H-Aib-QGT-(α-Me-2F-Phe)-TSD-Bip(OMe)-Bip(2Me)]
99%,99%,99%,99%,99%,0 pmol/ml/µg prt,0 pmol/ml/µg prt,0 pmol/ml/µg prt,0 pmol/ml/µg prt,0 pmol/ml/µg prt,HXQGTXTSDXX (ACP at 2; α-Me-2F-Phe at 6; Bip(OMe) at 10; Bip(2Me) at 11) [Seq. ID. No. 33: H-(ACP)-QGT-(α-Me-2F-Phe)-TSD-Bip(OMe)-Bip(2Me)]
93%,99%,99%,99%,99%,9 pmol/ml/µg prt,6 pmol/ml/µg prt,5 pmol/ml/µg prt,0 pmol/ml/µg prt,3 pmol/ml/µg prt,HXQGTXTSDXX (Aib at 2; α-Me-2F-Phe at 6; Bip(OMe) at 10; Bip(Pyr) at 11) [Seq. ID. No. 30: H-Aib-QGT-(α-Me-2F-Phe)-TSD-Bip(OMe)-Bip(Pyr)]
45%,84%,90%,99%,99%,6 pmol/ml/µg prt,5 pmol/ml/µg prt,2 pmol/ml/µg prt,0 pmol/ml/µg prt,0 pmol/ml/µg prt,HSQGTFTSD[Bip(OMe)][Bip(2F)] (not fully specified (C-terminus); printed as HSQGTFTSD-Bip(OMe)-Bip(2F)) [Seq. ID. No. 7: HSQGTFTSD-Bip(OMe)-Bip(2F)]
